Source: US5604203A, “Analogs of peptide YY and uses thereof” (University of Cincinnati, priority 1994, dated 1997)
Where two headings read alike, the source gives them in different places. Blank lines part the entries; values can stand above or below the molecule they belong to. Square brackets hold non-standard residues; d marks the D form. Peptide text beside a SMILES is read from it. Phe(4-Cl) = N[C@@H](Cc1ccc(Cl)cc1)C(=O)O

Legend:
[1] = molecular target: T1, intestinal PYY-preferring receptors (Rattus norvegicus, UniProt Q9ERC0); details: BINDING IC50 (nM), Table 1; 125I-PYY, rat jejunal membranes; mean of three separate experiments
T1 sequence (Q9ERC0 1-381): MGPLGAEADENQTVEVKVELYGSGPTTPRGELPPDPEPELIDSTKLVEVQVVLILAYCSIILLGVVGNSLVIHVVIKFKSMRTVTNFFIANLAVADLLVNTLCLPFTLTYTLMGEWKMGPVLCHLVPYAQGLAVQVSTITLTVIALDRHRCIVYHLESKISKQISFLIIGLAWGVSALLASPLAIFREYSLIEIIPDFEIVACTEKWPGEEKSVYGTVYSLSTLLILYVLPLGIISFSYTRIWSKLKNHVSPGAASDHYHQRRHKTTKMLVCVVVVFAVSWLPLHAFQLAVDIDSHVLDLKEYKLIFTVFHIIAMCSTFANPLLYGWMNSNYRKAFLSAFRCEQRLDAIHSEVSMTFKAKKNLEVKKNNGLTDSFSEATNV
Procedure: Bound and free peptides were separated by centrifugation at 20,000×g for 10 min.
All points in the binding experiments are the mean of at least three experiments performed in duplicate.

[2] = system: rat jejunal mucosa; test: Short circuit current (SCC) in voltage clamped rat jejunal mucosa (antisecretory effect); format: cell-based; details: for EC50: Table 1, reduction of baseline SCC, rat jejunum, mean of three separate experiments
Procedure: The antisecretory effects of the peptides were investigated by measuring the short-circuit current (SCC) in rat jejunal mucosa mounted in a Ussing chamber and automatically voltage clamped as described by Cox et al. (J. Physiol. supra). Briefly, strips of mucosa were placed between two halves of perspex Ussing chambers (window size, 0.6 cm^2) containing oxygenated (95% O2 /5% CO2) Krebs-Henseleit solution (NaCl, 117 mM, KCl 4.7 mM, CaCl2, 2.5 mM; MgSO4 1.2 mM, NaHCO3 24.8 mM and glucose 11.1 mM), pH 7.4, 37° C. […] Once a stable baseline SCC was reached, peptides were added to the basolateral reservoir only, and cumulative concentration-response profiles constructed.

[3] = molecular target: PYY receptor of rat jejunal epithelial plasma membranes (rat); test: competition with 125I-PYY on rat jejunal epithelial plasma membranes
[4] = molecular target: PYY receptor of rat jejunal epithelial plasma membranes (rat)
[5] = molecular target: PYY receptor of rat jejunal epithelial plasma membranes (rat); test: competition with 0.05 nM 125I-PYY on rat jejunal epithelial plasma membranes
[6] = molecular target: PYY receptor of rat jejunal epithelial plasma membranes (rat); test: competition with 125I-PYY on rat jejunal membranes
[7] = molecular target: PYY receptor of rat jejunal epithelial plasma membranes (rat); remark: listed apart in the source
[8] = molecular target: PYY receptor of rat jejunal epithelial plasma membranes (rat); test: competitive binding, done as described above (125I-PYY, rat jejunal membranes)
[9] = molecular target: PYY receptor of rat jejunal epithelial plasma membranes (rat); remark: listed apart in the source
[10] = system: rat jejunal mucosa; details: Cox et al. Peptides, supra; cited from earlier work

Molecule: CC(=O)N[C@@H](C)C(=O)N[C@@H](CO)C(=O)N[C@@H](CC(C)C)C(=O)N[C@@H](CCCNC(=N)N)C(=O)N[C@@H](Cc1ccc(Cl)cc1)C(=O)N[C@@H](Cc1ccc(O)cc1)C(=O)N[C@@H](CC(C)C)C(=O)N[C@@H](CC(N)=O)C(=O)N[C@@H](CC(C)C)C(=O)N[C@H](C(=O)N[C@H](C(=O)N[C@@H](CCCNC(=N)N)C(=O)N[C@@H](CCC(N)=O)C(=O)N[C@@H](CCCNC(=N)N)C(=O)N[C@@H](Cc1ccc(O)cc1)C(N)=O)[C@@H](C)O)C(C)C [N-α-Ac-[p.ClPhe^26]PYY(22-36), N-α-Ac-A S L R [p.Cl.Phe^26] Y L N L V T R Q R] (HELM PEPTIDE1{[ac].A.S.L.R.[O=C([C@H](Cc1ccc(Cl)cc1)N[*:1])[*:2]].Y.L.N.L.V.T.R.Q.R.Y.[am]}$$$$V2.0)
IC50 [1]: 50 nM
EC50 [2]: 124 nM

Molecule: Ac-ASLRHFLNLVTRQRY-NH2 [N-α-Ac-[Phe^27]PYY(22-36)]
maximal inhibitory response (change in SCC) ([2]; 1.4 μM, n=7): -12.0±1.3 μA/0.6 cm^2
EC50 [2]: 15.1 nM
times less potent than the intact hormone (antisecretory potency) ([2]; relative to PYY): 9 times

Molecule: Ac-ASLRHYENLVTRQRY-NH2 [N-α-Ac-[Glu^28]PYY(22-36), N-α-Ac-A S L R H Y [Glu] N L V T R Q R Y--NH2]
IC50 [1]: 44.7 nM
EC50 [2]: 3000 nM

Molecule: N-α-Ac-PYY(22-36) (peptide)
fold increase of receptor affinity against PYY(22-36) [3]: 4 times
SCC EC50 [4]: 40 nM
IC50 [5]: 1.12 nM
IC50 [6]: 0.08 nM

Molecule: N-α-naphthaleneacetyl-PYY(22-36) (peptide)
SCC EC50 [7]: > 30000 nM
SCC EC50 [4]: 19500 nM

Molecule: PYY (peptide YY) (ligand)
SCC EC50 of PYY after treatment of the tissue with the analog (1 µM) [7]: 4.4 nM
SCC EC50 of PYY, nontreated controls [7]: 2.6 nM
IC50 [8]: 0.1 nM
SCC EC50 [4]: 1.7 nM
IC50 [5]: 0.2 nM
maximal inhibitory response of SCC [9]: -12.6 µA/0.6 cm^2
IC50 [6]: 0.04 nM

Molecule: [Pro^34 ]NPY: Y-1 selective agonist
sensitivity of rat jejunal epithelial receptors to agonist [10]: completely insensitive

B1: N-α-Ac-[Glu^28 ]PYY(22-36) (peptide)
peptide: Ac-ASLRHYENLVTRQRY-NH2
SCC EC50 [4]: 3000 nM
IC50 [5]: 44.7 nM

B3: N-α-Ac-[Tyr^22, Phe^27 ]PYY(22-36) (peptide)
peptide: Ac-YSLRHFLNLVTRQRY-NH2
IC50 [8]: 0.1 nM

B4: N-α-Ac-[Thz^26, Phe^27 ]PYY(22-36) (peptide)
peptide: ASLRXFLNLVTRQRY
HELM: PEPTIDE1{[ac].A.S.L.R.[O=C([C@H](Cc1cscn1)N[*:1])[*:2]].F.L.N.L.V.T.R.Q.R.Y.[am]}$$$$V2.0
SMILES: CC(=O)N[C@@H](C)C(=O)N[C@@H](CO)C(=O)N[C@@H](CC(C)C)C(=O)N[C@@H](CCCNC(=N)N)C(=O)N[C@@H](Cc1cscn1)C(=O)N[C@@H](Cc1ccccc1)C(=O)N[C@@H](CC(C)C)C(=O)N[C@@H](CC(N)=O)C(=O)N[C@@H](CC(C)C)C(=O)N[C@H](C(=O)N[C@H](C(=O)N[C@@H](CCCNC(=N)N)C(=O)N[C@@H](CCC(N)=O)C(=O)N[C@@H](CCCNC(=N)N)C(=O)N[C@@H](Cc1ccc(O)cc1)C(N)=O)[C@@H](C)O)C(C)C
IC50 [8]: 4.5 nM

Now from value to molecule:

SCC EC50 [4]: 124 nM
IC50 [5]: 50 nM
B2: N-α-Ac-[p.ClPhe^26 ]PYY(22-36) (peptide)
peptide: ASLRXYLNLVTRQRY
HELM: PEPTIDE1{[ac].A.S.L.R.[O=C([C@H](Cc1ccc(Cl)cc1)N[*:1])[*:2]].Y.L.N.L.V.T.R.Q.R.Y.[am]}$$$$V2.0
SMILES: CC(=O)N[C@@H](C)C(=O)N[C@@H](CO)C(=O)N[C@@H](CC(C)C)C(=O)N[C@@H](CCCNC(=N)N)C(=O)N[C@@H](Cc1ccc(Cl)cc1)C(=O)N[C@@H](Cc1ccc(O)cc1)C(=O)N[C@@H](CC(C)C)C(=O)N[C@@H](CC(N)=O)C(=O)N[C@@H](CC(C)C)C(=O)N[C@H](C(=O)N[C@H](C(=O)N[C@@H](CCCNC(=N)N)C(=O)N[C@@H](CCC(N)=O)C(=O)N[C@@H](CCCNC(=N)N)C(=O)N[C@@H](Cc1ccc(O)cc1)C(N)=O)[C@@H](C)O)C(C)C

IC50 [8]: 11.2 nM
B5: N-α-Ac-[Phe^22,27 ]PYY(22-36) (peptide)
peptide: FSLRHFLNLVTRQRY
modifications: not fully specified; N-terminal acetyl; C-terminal amide

IC50 [8]: 1.58 nM
B6: N-α-Ac-[Pcp^27 ]PYY(22-36) (peptide)
peptide: Ac-ASLRH[Phe(4-Cl)]LNLVTRQRY-NH2

percent increase of receptor affinity against N-α-Ac-PYY(22-36) [3]: 28%
SCC EC50 [4]: 15.1 nM
IC50 [5]: 0.8 nM
antisecretory potency against PYY (times less potent than PYY) [9]: 9
maximal inhibitory response of SCC [9]: -12 µA/0.6 cm^2
B7: N-α-Ac-[Phe^27 ]PYY(22-36) (peptide)
peptide: Ac-ASLRHFLNLVTRQRY-NH2
